Experimental data from patent publication US20260103522A1 (LONGBIO PHARMA SUZHOU, published 2026).

Molecular target: T1, recombinant human FcεRIa extracellular region-mouse IgG2a Fc-6×His fusion protein (human; mouse, UniProt P12319 26-205)
T1 construct: extracellular domain; Self-produced; also called FcεRIa-mG2Ahis; DB3967; not shown: mouse IgG2a Fc
Experiment: BLI (GatorBio), FcεRIa-mG2Ahis loaded on Anti-HIS probe, binding protein at 200, 50, 12.5 nM
Source text: In order to verify the binding ability of the binding proteins to FcεRIa, the Bio-layer Interferometry (BLI, GatorBio) was used to detect the affinity of the binding proteins to FcεRIa. The detailed affinity assay method can be found in the usage or application instructions of the GatorBio instrument, which was briefly described as follows: […]

T1 sequence (P12319 26-205): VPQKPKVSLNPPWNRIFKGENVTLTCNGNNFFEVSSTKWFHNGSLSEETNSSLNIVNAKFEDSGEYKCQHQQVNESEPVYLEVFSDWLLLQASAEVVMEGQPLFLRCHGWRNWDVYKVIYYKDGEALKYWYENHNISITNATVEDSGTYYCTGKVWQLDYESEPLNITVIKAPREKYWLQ

Binder | Kd
binding protein DB366 (designed binder, Engineered IgG Fc with IgE CH3 loops) CADSNPRGVSVFLFPPKPKDTLMISRTPEVTCVVVDLAPSKGTVKFNWYVDGVEVHNAKTKPREKQRNGTLTVVSVLTVLHQDWLNGKEYKCKVTHPHLPRALEKTISKAKGQPREPQVYTLPPSREEMTKNQVSLTCLVKGFYPSDIAVEWESNGQPENNYKTTPPVLDSDGSFFLYSKLTVDKSRWQQGNVFSCSVMHEALHNHYTQKSLSLSPGK | ~1 nM
binding protein DB-B63 (designed binder, Engineered IgG Fc with IgE CH3 loops) CADSNPRGVSVFLFPPKPKDTLMISRTPEVTCVVVDLAPSKGTVNFNWYVDGVEVHNAKTKPREKQRNGTLTVVSVLTVLHQDWLNGKEYKCRVTHPHLPRALEKTISKAKGQPREPQVYTLPPSREEMTKNQVSLTCLVKGFYPSDIAVEWESNGQPENNYKTTPPVLDSDGSFFLYSKLTVDKSRWQQGNVFSCSVMHEALHNHYTQKSLSLSPGK | ~1 nM
binding protein DB364 (designed binder, Engineered IgG Fc with IgE CH3 loops) DFTPPTVKILQSSCDGGGHFPPTIQLLCLVSGYTPGTINITWLEDGQVMDVDLSTASTTQEGELASTQSELTLSQKHWLSDRTYTCQVTYQGHTFEDSTKKCADSNPRGVSVFLFPPKPKDTLMISRTPEVTCVVVDLAPSKGTVKFNWYVDGVEVHNAKTKPREKQRNGTLTVVSVLTVLHQDWLNGKEYKCKVTHPHLPRALEKTISKAKGQPREPQVYTLPPSREEMTKNQVSLTCLVKGFYPSDIAVEWESNGQPENNYKTTPPVLDSDGSFFLYSKLTVDKSRWQQGNVFSCSVMHEALHNHYTQKSLSLSPGK | ~1 nM
Her2-specific binding protein DB872 (antibody, human IgG1, kappa, IgG-like molecule: Pertuzumab Fab fused to the engineered Fc (on the basis of DB366); copies: 2 + 2) heavy: EVQLVESGGGLVQPGGSLRLSCAASGFTFTDYTMDWVRQAPGKGLEWVADVNPNSGGSIYNQRFKGRFTLSVDRSKNTLYLQMNSLRAEDTAVYYCARNLGPSFYFDYWGQGTLVTVSSASTKGPSVFPLAPSSKSTSGGTAALGCLVKDYFPEPVTVSWNSGALTSGVHTFPAVLQSSGLYSLSSVVTVPSSSLGTQTYICNVNHKPSNTKVDKKVEPKSCDKTHTCPPCPADSNPRGVSVFLFPPKPKDTLMISRTPEVTCVVVDLAPSKGTVKFNWYVDGVEVHNAKTKPREKQRNGTLTVVSVLTVLHQDWLNGKEYKCKVTHPHLPRALEKTISKAKGQPREPQVYTLPPSREEMTKNQVSLTCLVKGFYPSDIAVEWESNGQPENNYKTTPPVLDSDGSFFLYSKLTVDKSRWQQGNVFSCSVMHEALHNHYTQKSLSLSPGK light: not shown | ~1 nM
binding protein DB-B64 (designed binder, Engineered IgG Fc with IgE CH3 loops) CPAPELLGGPSVFLFPPKPKDTLMISRTPEVTCVVVDLAPSKGTVKFNWYVDGVEVHNAKTKPREKQRNGTLTVVSVLTVLHQDWLNGKEYKCKVTHPHLPRALEKTISKAKGQPREPQVYTLPPSREEMTKNQVSLTCLVKGFYPSDIAVEWESNGQPENNYKTTPPVLDSDGSFFLYSKLTVDKSRWQQGNVFSCSVMHEALHNHYTQKSLSLSPGK | ~1 nM
binding protein DB365 (designed binder, Engineered IgG Fc with IgE CH3 loops) TKKCADSNPRGVSVFLFPPKPKDTLMISRTPEVTCVVVDLAPSKGTVKFNWYVDGVEVHNAKTKPREKQRNGTLTVVSVLTVLHQDWLNGKEYKCKVTHPHLPRALEKTISKAKGQPREPQVYTLPPSREEMTKNQVSLTCLVKGFYPSDIAVEWESNGQPENNYKTTPPVLDSDGSFFLYSKLTVDKSRWQQGNVFSCSVMHEALHNHYTQKSLSLSPGK | ~1 nM
Her2-specific binding protein DB871 (antibody, IgG-like molecule: Pertuzumab Fab fused to the engineered Fc (on the basis of DB177); copies: 2 + 2) heavy: EVQLVESGGGLVQPGGSLRLSCAASGFTFTDYTMDWVRQAPGKGLEWVADVNPNSGGSIYNQRFKGRFTLSVDRSKNTLYLQMNSLRAEDTAVYYCARNLGPSFYFDYWGQGTLVTVSSASTKGPSVFPLAPSSKSTSGGTAALGCLVKDYFPEPVTVSWNSGALTSGVHTFPAVLQSSGLYSLSSVVTVPSSSLGTQTYICNVNHKPSNTKVDKKVEPKSCSRDFTPPTVKILQSSCDGGGHFPPTIQLLCLVSGYTPGTINITWLEDGQVMDVDLSTASTTQEGELASTQSELTLSQKHWLSDRTYTCQVTYQGHTFEDSTKKCADSNPRGVSVFLFPPKPKDTLMISRTPEVTCVVVDLAPSKGTVKFNWYVDGVEVHNAKTKPREKQRNGTLTVVSVLTVLHQDWLNGKEYKCKVTHPHLPRALEKTISKAKGQPREPQVYTLPPSREEMTKNQVSLTCLVKGFYPSDIAVEWESNGQPENNYKTTPPVLDSDGSFFLYSKLTVDKSRWQQGNVFSCSVMHEALHNHYTQKSLSLSPGK light: not shown | ~1 nM
GPC3-specific binding protein DB-B230 (antibody, human IgG1, kappa, IgG-like molecule: Codrituzumab Fab fused to the engineered Fc; copies: 2 + 2) heavy: QVQLVQSGAEVKKPGASVKVSCKASGYTFTDYEMHWVRQAPGQGLEWMGALDPKTGDTAYSQKFKGRVTLTADKSTSTAYMELSSLTSEDTAVYYCTRFYSYTYWGQGTLVTVSSASTKGPSVFPLAPSSKSTSGGTAALGCLVKDYFPEPVTVSWNSGALTSGVHTFPAVLQSSGLYSLSSVVTVPSSSLGTQTYICNVNHKPSNTKVDKKVEPKSCDKTHTCPPCPADSNPRGVSVFLFPPKPKDTLMISRTPEVTCVVVDLAPSKGTVKFNWYVDGVEVHNAKTKPREKQRNGTLTVVSVLTVLHQDWLNGKEYKCKVTHPHLPRALEKTISKAKGQPREPQVYTLPPSREEMTKNQVSLTCLVKGFYPSDIAVEWESNGQPENNYKTTPPVLDSDGSFFLYSKLTVDKSRWQQGNVFSCSVMHEALHNHYTQKSLSLSPGK light: DVVMTQSPLSLPVTPGEPASISCRSSQSLVHSNRNTYLHWYLQKPGQSPQLLIYKVSNRFSGVPDRFSGSGSGTDFTLKISRVEAEDVGVYYCSQNTHVPPTFGQGTKLEIKRTVAAPSVFIFPPSDEQLKSGTASVVCLLNNFYPREAKVQWKVDNALQSGNSQESVTEQDSKDSTYSLSSTLTLSKADYEKHKVYACEVTHQGLSSPVTKSFNRGEC | ~1 nM
GPC3-specific binding protein DB-B229 (antibody, IgG-like molecule: Codrituzumab Fab fused to the engineered Fc; copies: 2 + 2) heavy: QVQLVQSGAEVKKPGASVKVSCKASGYTFTDYEMHWVRQAPGQGLEWMGALDPKTGDTAYSQKFKGRVTLTADKSTSTAYMELSSLTSEDTAVYYCTRFYSYTYWGQGTLVTVSSASTKGPSVFPLAPSSKSTSGGTAALGCLVKDYFPEPVTVSWNSGALTSGVHTFPAVLQSSGLYSLSSVVTVPSSSLGTQTYICNVNHKPSNTKVDKKVEPKSCSRDFTPPTVKILQSSCDGGGHFPPTIQLLCLVSGYTPGTINITWLEDGQVMDVDLSTASTTQEGELASTQSELTLSQKHWLSDRTYTCQVTYQGHTFEDSTKKCADSNPRGVSVFLFPPKPKDTLMISRTPEVTCVVVDLAPSKGTVKFNWYVDGVEVHNAKTKPREKQRNGTLTVVSVLTVLHQDWLNGKEYKCKVTHPHLPRALEKTISKAKGQPREPQVYTLPPSREEMTKNQVSLTCLVKGFYPSDIAVEWESNGQPENNYKTTPPVLDSDGSFFLYSKLTVDKSRWQQGNVFSCSVMHEALHNHYTQKSLSLSPGK light: DVVMTQSPLSLPVTPGEPASISCRSSQSLVHSNRNTYLHWYLQKPGQSPQLLIYKVSNRFSGVPDRFSGSGSGTDFTLKISRVEAEDVGVYYCSQNTHVPPTFGQGTKLEIKRTVAAPSVFIFPPSDEQLKSGTASVVCLLNNFYPREAKVQWKVDNALQSGNSQESVTEQDSKDSTYSLSSTLTLSKADYEKHKVYACEVTHQGLSSPVTKSFNRGEC | ~1 nM
binding protein DB177 (designed binder, Engineered human IgG Fc whose CH2 carries BC-LOOP, DE-TURN and FG-LOOP of IgE CH3) CSRDFTPPTVKILQSSCDGGGHFPPTIQLLCLVSGYTPGTINITWLEDGQVMDVDLSTASTTQEGELASTQSELTLSQKHWLSDRTYTCQVTYQGHTFEDSTKKCADSNPRGVSVFLFPPKPKDTLMISRTPEVTCVVVDLAPSKGTVKFNWYVDGVEVHNAKTKPREKQRNGTLTVVSVLTVLHQDWLNGKEYKCKVTHPHLPRALEKTISKAKGQPREPQVYTLPPSREEMTKNQVSLTCLVKGFYPSDIAVEWESNGQPENNYKTTPPVLDSDGSFFLYSKLTVDKSRWQQGNVFSCSVMHEALHNHYTQKSLSLSPGK | ~1 nM
